Positions of bridges follow the written chain, without caps; N, C: chain ends. Non-standard residues stand in square brackets, D forms with d. No end group written: not given here. *: point of attachment. Acetyl(2-(4-imidazolyl)) = O=C(Cc1c[nH]cn1)*; Aib = CC(C)(N)C(=O)O
T1: human GIP receptor (human, UniProt P48546 22-466)
T1 sequence (looked up): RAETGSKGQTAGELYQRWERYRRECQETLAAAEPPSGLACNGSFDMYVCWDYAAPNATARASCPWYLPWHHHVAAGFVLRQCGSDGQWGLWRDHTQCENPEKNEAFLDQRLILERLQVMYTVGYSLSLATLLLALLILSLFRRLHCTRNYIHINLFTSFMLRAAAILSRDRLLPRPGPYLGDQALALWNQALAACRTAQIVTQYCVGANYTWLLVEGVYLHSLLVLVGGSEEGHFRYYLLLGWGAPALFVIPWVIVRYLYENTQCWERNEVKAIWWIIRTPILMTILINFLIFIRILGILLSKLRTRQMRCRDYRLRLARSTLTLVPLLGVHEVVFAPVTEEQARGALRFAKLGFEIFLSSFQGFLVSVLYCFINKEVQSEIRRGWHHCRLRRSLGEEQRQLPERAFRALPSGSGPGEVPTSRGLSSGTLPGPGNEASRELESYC

B1: triple agonist of SEQ ID NO: 40 (peptide)
peptide: H[Aib]QGTFTSDKSKYLDERACQDFVQWLLDGGPSSGAPPPS
modifications: not fully specified
B2: triple agonist of SEQ ID NO: 42 (peptide)
peptide: Y[Aib]QGTFTSDYSKYLDEKRAKEFVQWLLDHHPSSGQPPPSC
modifications: bridge 16-20; not fully specified
B3: triple agonist of SEQ ID NO: 52 (peptide)
peptide: H[Aib]QGTFTSDYSKYLDEKRQKEFVQWLLDTC
modifications: bridge 16-20; not fully specified
B4: triple agonist of SEQ ID NO: 59 (peptide)
peptide: {Acetyl(2-(4-imidazolyl))}-[Aib]QGTFTSDYSICMDEKHQKDFVNWLLNTK
modifications: bridge 15-19; not fully specified
B5: triple agonist of SEQ ID NO: 5 (peptide)
peptide: H[Aib]QGTFTSDVSSYLLGQQQKEFIAWLVKGGGPSSGAPPPSC
modifications: not fully specified
B6: triple agonist of SEQ ID NO: 60 (peptide)
peptide: {Acetyl(2-(4-imidazolyl))}-[Aib]QGTFTSDYSIAMDEKHCKDFVNWLLNTK
modifications: bridge 15-19; not fully specified
B7: triple agonist of SEQ ID NO: 51 (peptide)
peptide: H[Aib]QGTFTSDYSKYLDEKRQKEFVQWLLNTC
modifications: bridge 16-20; not fully specified
B8: triple agonist of SEQ ID NO: 43 (peptide)
peptide: Y[Aib]QGTFTSDYSKYLDEKRAKEFVQWLLDHHCSSGQPPPS
modifications: bridge 16-20; not fully specified
B9: triple agonist of SEQ ID NO: 58 (peptide)
peptide: H[Aib]QGTFTSDYSKYLDEKRQKEFVQWLLNTKC
modifications: bridge 16-20; not fully specified
B10: triple agonist of SEQ ID NO: 38 (peptide)
peptide: {Acetyl(2-(4-imidazolyl))}-[Aib]QGTFTSDKSSYLDERAAQDFVQWLLDGGPSSGAPPPSS
modifications: not fully specified; also: ring from underlined residues, positions not shown
B11: triple agonist of SEQ ID NO: 39 (peptide)
peptide: H[Aib]QGTFTSDYSKYLDGQHAQCFVAWLLAGGGPSSGAPPPS
modifications: also: ring from underlined residues, positions not shown
B12: triple agonist of SEQ ID NO: 56 (peptide)
peptide: H[Aib]QGTFTSDYSKYLDEKRQKEFVNWLLAQC
modifications: bridge 16-20
B13: triple agonist of SEQ ID NO: 37 (peptide)
peptide: H[Aib]QGTFTSDYSKYLDECRQKEFVQWLLNGGPSSGAPPPSG
modifications: bridge 16-20
B14: triple agonist of SEQ ID NO: 6 (peptide)
peptide: H[Aib]QGTFTSDVSSYLDGQAAKEFVAWLLKGC
modifications: not fully specified

These binders were tested against human GLP-1 receptor (human, UniProt P43220 24-463) (assay: cell-based or functional assay).
With B1 the “In vitro activity (%) compared with native peptide: vs GLP-1” value (“In vitro activity (%) … vs GLP-1” below) was 75.2%.
B2 was tested, and the “In vitro activity (%) … vs GLP-1” value was 33.9%.
With B3 the “In vitro activity (%) … vs GLP-1” value was 44.1%.
For B4, the “In vitro activity (%) … vs GLP-1” value was 40.3%.
In the case of B5, the “In vitro activity (%) … vs GLP-1” value is reported as 42.1%.
With B6 the “In vitro activity (%) … vs GLP-1” value was 106%.
In the case of B7, the “In vitro activity (%) … vs GLP-1” value is reported as 14.4%.
For B8, the “In vitro activity (%) … vs GLP-1” value was 12.6%.
With B9 the “In vitro activity (%) … vs GLP-1” value was 39.1%.
With B10 the “In vitro activity (%) … vs GLP-1” value was 2.3%.
In the case of B11, the “In vitro activity (%) … vs GLP-1” value is reported as 13.9%.
For B12, the “In vitro activity (%) … vs GLP-1” value was 57.9%.
For B13, the “In vitro activity (%) … vs GLP-1” value was 236%.
In the case of B14, the “In vitro activity (%) … vs GLP-1” value is reported as 17%.

These binders were tested against human GCG receptor (human, UniProt P47871 26-477) (assay: cell-based or functional assay).
Sequence of human GCG receptor (P47871 26-477): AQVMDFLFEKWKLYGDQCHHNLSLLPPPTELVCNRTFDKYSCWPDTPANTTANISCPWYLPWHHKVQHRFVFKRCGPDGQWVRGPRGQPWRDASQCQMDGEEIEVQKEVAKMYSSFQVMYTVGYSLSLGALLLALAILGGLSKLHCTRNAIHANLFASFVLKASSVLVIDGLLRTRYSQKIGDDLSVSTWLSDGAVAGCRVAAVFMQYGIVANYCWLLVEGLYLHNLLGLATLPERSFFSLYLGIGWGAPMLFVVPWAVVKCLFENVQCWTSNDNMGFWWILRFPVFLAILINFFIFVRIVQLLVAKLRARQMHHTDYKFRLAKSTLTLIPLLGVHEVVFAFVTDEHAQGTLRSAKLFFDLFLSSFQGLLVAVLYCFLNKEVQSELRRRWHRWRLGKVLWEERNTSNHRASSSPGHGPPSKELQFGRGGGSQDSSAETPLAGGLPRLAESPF
B1 was tested, and the “In vitro activity (%) compared with native peptide: vs Glucagon” value (“In vitro activity (%) … vs Glucagon” for short) was under 0.1%.
For B2, the “In vitro activity (%) … vs Glucagon” value was 206%.
With B3 the “In vitro activity (%) … vs Glucagon” value was 7.5%.
For B4, the “In vitro activity (%) … vs Glucagon” value was under 0.1%.
B5 was tested, and the “In vitro activity (%) … vs Glucagon” value was under 0.1%.
For B6, the “In vitro activity (%) … vs Glucagon” value was under 0.1%.
For B7, the “In vitro activity (%) … vs Glucagon” value was 2%.
B8 was tested, and the “In vitro activity (%) … vs Glucagon” value was 88.4%.
For B9, the “In vitro activity (%) … vs Glucagon” value was 2.6%.
With B11 the “In vitro activity (%) … vs Glucagon” value was 0.53%.
B12 was tested, and the “In vitro activity (%) … vs Glucagon” value was 4.9%.
With B13 the “In vitro activity (%) … vs Glucagon” value was 6.21%.
In the case of B14, the “In vitro activity (%) … vs Glucagon” value is reported as under 0.1%.

These binders were tested against T1, human GIP receptor (assay: cell-based or functional assay).
In the case of B1, the “In vitro activity (%) compared with native peptide: vs GIP” value (from here on “In vitro activity (%) … vs GIP”) is reported as under 0.1%.
In the case of B2, the “In vitro activity (%) … vs GIP” value is reported as 7.8%.
B3 was tested, and the “In vitro activity (%) … vs GIP” value was 0.3%.
For B4, the “In vitro activity (%) … vs GIP” value was 4%.
With B5 the “In vitro activity (%) … vs GIP” value was under 0.1%.
For B6, the “In vitro activity (%) … vs GIP” value was 8.2%.
For B7, the “In vitro activity (%) … vs GIP” value was 0.1%.
For B8, the “In vitro activity (%) … vs GIP” value was 3.7%.
With B9 the “In vitro activity (%) … vs GIP” value was 0.2%.
B11 was tested, and the “In vitro activity (%) … vs GIP” value was under 0.1%.
In the case of B12, the “In vitro activity (%) … vs GIP” value is reported as 0.8%.
B13 was tested, and the “In vitro activity (%) … vs GIP” value was 2.2%.
B14 was tested, and the “In vitro activity (%) … vs GIP” value was under 0.1%.

Source: patent US20230372448A1, “THERAPEUTIC USE OF LONG-ACTING CONJUGATE OF TRIPLE AGONIST ACTING ON ALL OF GLUCAGON, GLP-1 AND GIP RECEPTORS AGAINST MULTIPLE SCLEROSIS” (HANMI PHARM. CO. ,LTD., priority 2020, published 2023)
